Test results as given in article PMC2120044 (The Journal of Cell Biology, 1994).

Target: the molecule itself
Assay: SEC

B1: cofactor A purified from bovine testis (natural protein, UniProt P48427 1-108, looked up)
chain: MADPRVRQIKIKTGVVKRLVKEKMMYEKEAKQQEEKIEKMKAEDGENYAIKKQAEILQESRMMIPDCQRRLEAAHTDLLQLLESEKDLEEAEEYKEARLVLDSVKLEA
stoichiometry N: 2
